We go through six molecules from US20220194983A1 (Bicycle, published 2022).

For assay [1], the target named is T1, prostate-specific membrane antigen (PSMA) (human, UniProt Q04609 44-750, limits assumed).
T1 construct: also called Glutamate carboxypeptidase II; GCPII
Briefly: fluorescence polarization binding assay. On the procedure:
PSMA binding was measured using the fluorescence polarization assay methodology described in Shen et al (2013) PLOS ONE 8(7), e68339 and PSMA enzyme inhibition was measured using the methodology described in WO 2009/070302.
A general note: Polarisation of emitted light reports the rotation of a fluorescent probe.

The target of assay [2] is T1, prostate-specific membrane antigen …. Description: fluorescence polarization, FP (h).
For assay [3] the target is unchanged. Briefly: cell-based or functional assay.

Numbered stars: 1 amine (or outer) side, 2 acyl side, 3 side chain; on linkers, the order of the positions; unused ones are H or OH. Bridge positions count the residues as written; N and C are the ends. Square brackets hold non-standard residues; d marks the D form. Ends that are not written are not given here. TBMB = c1c(C[*:1])cc(C[*:3])cc1C[*:2]; Dap(Me) = CNC[C@H](N)C(=O)O

T1 sequence (Q04609 44-750 limits assumed): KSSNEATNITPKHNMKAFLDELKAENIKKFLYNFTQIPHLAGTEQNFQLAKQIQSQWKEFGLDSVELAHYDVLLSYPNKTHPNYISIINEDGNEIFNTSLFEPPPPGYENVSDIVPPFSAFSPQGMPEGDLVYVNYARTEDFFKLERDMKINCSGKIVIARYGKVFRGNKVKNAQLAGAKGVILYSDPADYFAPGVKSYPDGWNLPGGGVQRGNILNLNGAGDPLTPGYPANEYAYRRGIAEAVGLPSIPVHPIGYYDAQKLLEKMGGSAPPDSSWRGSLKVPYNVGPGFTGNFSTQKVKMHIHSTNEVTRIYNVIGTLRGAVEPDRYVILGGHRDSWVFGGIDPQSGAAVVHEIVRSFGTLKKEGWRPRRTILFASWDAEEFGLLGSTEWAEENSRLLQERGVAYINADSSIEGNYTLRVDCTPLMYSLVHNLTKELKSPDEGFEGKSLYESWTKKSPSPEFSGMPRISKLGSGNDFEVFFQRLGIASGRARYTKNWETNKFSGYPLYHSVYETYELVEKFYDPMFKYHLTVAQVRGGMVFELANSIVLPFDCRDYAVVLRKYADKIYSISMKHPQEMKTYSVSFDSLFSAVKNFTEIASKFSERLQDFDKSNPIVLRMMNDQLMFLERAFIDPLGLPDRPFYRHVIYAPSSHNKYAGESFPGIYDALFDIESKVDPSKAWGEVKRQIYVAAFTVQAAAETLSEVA

B1: 21-31-04-T01-N001 (peptide)
peptide: EVCWDCFMMEDGTCA
modifications: linker 3-6-14 via TBMB
notes: Bicyclic peptide on TBMB scaffold, all thioether
By Ki is commonly meant a measure of affinity in units of concentration, obtained from inhibition or displacement. For the molecule B1, in assay [1], the Ki amounted to 3 nM.

B2: 21-31-11-T01-N001 (peptide)
peptide: FCSECYMMEDGTCA
modifications: linker 2-5-13 via TBMB
As for B2, the Ki in assay [2] was 6 nM.

B3: 21-31-01-N001 (peptide)
peptide: CIECYIMEDGTCA
modifications: linker 1-4-12 via TBMB
As for B3, in assay [2], affinity was put at a Ki of 70 nM.

B4: 21-31-N002 (peptide)
peptide: ACMVCHMMEDGTCA
modifications: linker 2-5-13 via TBMB
Turning to B4, the “Enzyme inhibition IC50” value in assay [3] stood at 695 nM. For the same molecule, the affinity in assay [2] corresponds to a Ki of 40 nM.

B5: 21-31-04-T01-N007 (peptide)
peptide: EVCWDCFMMEDGTCAXXXXXXK
modifications: N-terminal acetyl; D-Glu at 1; Cys 3, 6 and 14 joined by thioether linkages to TBMB scaffold; X16-X21 = Sar; D-Lys at 22
In the case of B5, in assay [2], the Ki was determined as 30 nM.

B6: 21-31-04-T01-N017 (peptide)
peptide: EVCWD[Dap(Me)]FMMEDGT[Dap(Me)]A
modifications: linker 3-6-14 via TBMB
notes: Bicyclic peptide on TBMB scaffold
B6 gave an inhibitory constant (Ki) in assay [1] of 700 nM.
